Target: Mac2 (SUD-N, macrodomain II) of SARS-CoV Nsp3, purified (SARS-CoV (strain Frankfurt))
Test: ITC; […] ([…]) […] ([…]) […]; 25°C; VP-ITC; 20 mM Tris–HCl pH 8.5, 150 mM NaCl

B1: middle domain of human Paip1 (Paip1M), purified (domain or fragment)
chain: GSHMASMTGGQQMGRGSTLSEYVQDFLNHLTEQPGSFETEIEQFAETLNGCVTTDDALQELVELIYQQATSIPNFSYMGARLCNYLSHHLTISPQSGNFRQLLLQRCRTEYEVKDQAAKGDEVTRKRFHAFVLFLGELYLNLEIKGTNGQVTRADILQVGLRELLNALFSNPMDDNLICAVKLLKLTGSVLEDAWKEKGKMDMEEIIQRIENVVLDANCSRDVKQMLLKLVELRSS
**Q.** What does the source list for B1?
**A.** Kd: 15.5 µM; dH: -6.78 kcal/mol; stoichiometry N: 0.94

From paper PMC8167360
